Test: soluble fraction after stress (log2 fold change); higher = more stays soluble; pooled small domains, quantitative proteomics
Conditions: stress: 50 degC
Method in brief: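 Custom libraries of small protein domains were pooled and measured in a high-throughput format, with quantitative proteomics as the read-out. Each library was stressed at 50°C. The value is the log2 fold change in the amount of each protein that stays soluble after stress, used as a measure of aggregation propensity; higher values mean more of the protein stays soluble.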

Sequence | soluble fraction (log2)
HMQDKIWVVDETQLYPKLIEAMSEGKAVIHDGVAYWAEGSGKTGVIQHLPFKETTVQNVEEAIKLAQ | 0.169
HMADEGFRQTVLAVLARWESKIHHGQYNALKAKVMNGNWSSFVKQVVKFQGKFIHPDAAKELLGLFG | -0.0749
HMSDPTDRLVLEAALKALGEEERQVVLLHAASGLKHREIARDLGLPLSTVLSRYSRALKKLQRYLTEEGVH | -0.77
HMTKLPLLVELSRIIPTDTWVKKIKFSLGSVEFVGISKSASRLLPIVENSSYFHDTKFIGTIVT | -0.486
HMADAGQTTAATELKQAPNAGSATISQLSAGQTLQIGTRQGAWYQVKTPQGEGWVRMLSVRLQ | 0.0186
HMTNTDYPGKVVPVDPDGKTLKPDGDASYNDKPGTKVKTPTVPGYTAEVPNVEVPVGGGDIKVTYHKKPV | 0.372
HMRNKTVKEVLDYIEKNSEFIFFYYSKAIDTKRIVSLSVKDQPITVILDQLFKNTDVLYEIKDRQISLKRE | 0.277
HMPTTNIRAFRLREADPESVKEALSMVMPKTSIYVDARTKSVLVVGLLDELARAAEIVALIDQP | -0.79
HMGANAVAAFTARVRTGPSTGYPVRISVPQGRQVRVISGPYGGWYRVSYQGLTGYTYGGLLRQG | -0.408
HMDLTSDANLKEAKDQILNLLNDGKRHHVTEINKILLPPVQVQEALRFLIHEETVRVDASFLF | -0.167
HMHPARITATVRVGEGDLVDIEREAELGGPIHSKGVMILSSFLGARYARTVPLSLSASLVFEQSY | 0.0114
HMHYNMNYLENLTKTELFDLAKNKFGLTYAEMERHLSIPEGGARYAIKAEHSKYGSDIKKYLVEFLLE | -1.18
HMLSVRQRMGELLERLADGQFHRFESLFTVEEGKLGVVVTFLGLLTLAKEQLLDIVQEGPTAPIYVKSLA | -0.437
HMGGEAEVLQSIDEGREVEVRSVAADGSAEVIYRGARWRARAAVGSLAAGRWTIGRVDGTELVLEK | -0.0207
HMEDIASESVKRVIRKIIDDEDKKSPLSDQAIVEILAKGEGIVIARRTVAKYREMMGILPSSKRKKH | -0.209
HMDESLIEEAKAMILQMKIEGSVRVRSNGLLEFRNPLFGSVYGRSVEELQEKLNKKVREQKSRI | -0.0459
HMTKTSQEDEDIMRHLDELHTRWPFLGQRKLIEELKDQGIQIGRKRLRRLMKVMGIEAIAPK | -1.29
HMNVNEIREMYPEGTQIVLTEMRGENQMPYGLKGTVKFVDDAGQIHMKWENGSSLALNINEDTFEKVE | 0.147
HMKLNEQSMQVIDRIVDRHRGRPGPVKLMLHDVQKELGYIPFEAMEKIAAASGVSADEVYGVVTFYTQFTT | -0.0825
HMAPEPFILSVDADGKYYIDDLEKTKQEILIYATALYQEKPTTDFLVRGDKSAAYNDVLQAMVVLKE | -0.0406
HMSVLNLQTDIPKKYTDVLGTSVKGRLNTLVHNVIINSVDRPVIQMSEEVHEAMQGLRIFMFENVYRNPV | 0.0658
HMVLSVRERMGIVLEKVNTETFTDFKELFTVEEGRAGAIVSLLAILQLMKDSLIQLVQNEPNGPIYVKAA | -0.673
HMRLTTTPKTARGLTTMNRIIRAAEVEFGRKGYHYTGITDIAQRAKVASGTIYLYFTDKYSLYVHLLT | 0.246
HMGTTLTKIPGIGENRARLLLRHFGSLRAVREADADALAAVKGMTRPAAEAIVRYFEQQDAEGRRD | 0.21
HMAADWTAIKLAYVNGGMSMRELAQRFHVGAAGLMKRAAKEGWEAERQQNSAKVSNAAQMLIN | 0.33
HMEVFTPSEANVAEAREILAAMATAKANGEGATVYKGRLVDIASIKQAEVIVRQSEMIQSAH | 0.408

Sequence | soluble fraction (log2)
HMISEWDAAYSYAKQYYEENGHLFVPKKYVTSEGAALGKWIWEQRDSYLGLSSYKISDKKIEMLEDIGMFW | -4.02
HMVAPNSEATTKLIIEKTKYANESPAILMGFKATATMLMAKHVVLPTSKYAYFNEGRALLEKAIK | -0.0203
HMSPRADRSVNLDVGETVQIDDWGADGTAQIRYRGAPWTAVLRPGHTPHPGPHRVIELVGSRLLVEP | -0.0121
HMETKERDEQFLEMIRQNEGIIFKVASFYVDKEHPIGDLYQEVVLNLWKGYPSFRGESKYSTWIYRIALNT | -0.0833
HMKAETILAIPENQPERLFPNNEDEARKIYRDLAREWHTDRNKSPKAQDVFSHLSKLYDIVIDRIKNKTWT | 0.152
HMDEMPVEFVKISIKAGHPWENRKIKDLASLPDLLLVLILRGEERIIPNGNTVVLAGDKIVLSALSPE | -0.936
HMGPVALGVTDGATYFSSVTITFRRGTAVLDGEPIASGHTVYKSGAHSLTLTAGGKTRTIAFTMDT | -4.23
HMTFEPVYDENSRILILGTFPSVKSREQQFYYGHPQNRFWKLLAALTGWKVPKTISEKKELLLQNGIA | -0.136
HMTQEHDESVNLGKRLLDQALSRFGTSYRQLKKSEIKRILQSSGASTFKYILHQIGLGNRVPLAIANLIV | -0.0734
HMNNILNYTIAELMEILKIDDLETENVINSSNNLINKSINENNFPLAEFYEDVKNNLIEFIETFDS | -0.632
HMNREEFLSQLERLLYDIPAQEREEALEYYNGYFDDAGKEKEAEVIQELGSPGKVAAIIKADLSG | -0.0285
HMDDFNLSPREKDVLGHLVKGNSYKMIADELQIGYDTVHSHIKKIYKKLHVNSMSEAVAKALKNKL | 0.543
HMFPDLTGDELRIVDLLNTANDLQVNIITAKTNLPISRVTSLLFQLEMKGVVKPLAGGMYHLLG | -1.31
HMTGSAETRGITLTDEQVTVWAKDGSWANYVYRATDGNWYDGSGRLYYENGGGEWTQAATGEQGS | -0.0258
HMELNESVLKALYEKFREMSGSKGFITEDEVIIQLEKENPDITPDQQAEIFKYLYDTPLQIY | -0.127
HMQLPTNAAAILRYLSSGAVKGVGSATAVRIVEKFGEETLNILEQDPLRLAEIRGISRDKAKKIGEDFASQ | -0.201
HMPQTNIYPNPAFDKLFVSNLENETNFKIMDLFGRTIINSKTKGEISISELKSGIYIIEINNFRQKFVK | -0.839
HMTKDVIEIVDGNKFVFHKTIATDSVSSVINKYHISEADFRTWNELTGDMKVGEEYIVQLSLH | -1.26
HMGVDMGPAKYVGQKALTATEMRPAGKIQIGQTVFDAVSVGPFIGARKAVKVIKYENAQLYVEPE | 0.00597
HMTKNIIVTTSVKTSDELVEVAKNHALNLELDFNYRNKKTIKELLSSFDGLVVIYKNKISYFEDNSELF | 0.0798
HMDNMTEMQKAVTALIEKSGGSIDNLSVIYDHLKKKYPSFDLKDYGYSRFSSFLRSMENIMVRGNAVTLRS | 0.0337
HMNKPKIIINSVDDSVFSDYVKDSLSIAEVARSIGIDNNKINTSVYREIHKRIDSLKLDTSHFTGGAWN | -0.174
HMSEPHPPFQVVAQFPYKSEYEDDLNFEKDQIITVTSIEDDEWYYGDFKNKGGELVEGIFPKSFVTVK | -0.403
HMSPILTPDQATKAYGKDGVLYIHSNKERTIYIYDVTGRTVRILEAVEGENQINGLEKGIYFLEGQKVAV | -0.233
HMSNDRSYLARLQDYYAEHRALPSYASIGALLGLRSKSSVAALVARLKLAGFVESTPDRRLAPTRRFF | -3.24
HMDIINLADNIARLRRRRQITQEELADYLGVTKAAVSKWENRQTMPDILLLPRLAGLFEVTIDELVGY | -1.42

Sequence | soluble fraction (log2)
HMNTPHLTPREREVLKGIVDGLINKEIAARMGVSVATVITHRNNLTEKLGTRSVSALTIFAVMHGIVR | -2.49
HMDHAHWEEHEVKLLLTLAIQEKEKFNWNQFGLTREGWRNIYPHFPQYSRKQINNKFDFLKQKYRAWKDS | -1.84
HMNPSPYLRRHLSGDWGDLDEDDRRSNDAALASGEARLLSSYQVDPDLKLWIITEWDRSVTTLLLPSE | -0.0802
HMQKNKSVLFKDIVIAFNQNPKKLFNYKQLAADLDIHSEAERMLISQLLNDLKDQNFLEEVERGKYKLKL | 0.0237
HMASPRVWKDASSGRTLTGEFVELTKDAVKVRRANGDVVSLPLSRLTEEDITFAKGASETGGA | 0.146
HMGMVEFEIGERDHSEDVSRKLFEAGLIEDASDFNQYMIEKKMDDHLQTGKYQIPKGATKDEILELIVR | -0.00544
HMAIGSRLKVTTDATNLNIRSTPSTEGDIVGKAAHHEIVTLVEKTDDSWWKIKTNDGEEGYAYAQYLSPV | 0.12
HMDTYDSIDSILEERHLSRRKLAQAIGLPPSTFQSMMSRKSGMTLEVLMKIVSYLQVSPDAFW | -2.12
HMSVKLYPNPTRSVTTFATDVDKWYLYDNQGKLVSEGNTKTIDVTAFPVGIYFVKTIKGNNSTFVKLIV | -1.4
HMDLANRSLDRGITILESLARNGASSLADLHRDSGIAKSTIRRLLGTLIQHRLVRRSVADGLYRVTIPLPA | -1.18
HMGASLVIVPGAGFLRVSASSQTRLDVYSITGMRVRSVDFEPGTTEIELPAGFYIAGGRKFFV | -1.4
HMLDEKAVRQYLLNTLENSEIKMDRQAIDLFLRLTDLDLSKMMRELQKILLYGQEQEVITVKEIEQ | -0.856
HMRFGNHHVYRTLMVLSDQKRKGRKQIADAVGIGEGSMRTIIEYLRGLDMIDIRQTGVKITRHGNAFL | 0.0164
HMEGNLVEIFEDAFGRTMSTMDIEYINQFKRTGYDDEMIVSALREAVKSNALSFRYIERVLENWAHS | -0.202
HMEEQIEVPVQINGKVRSKLTVAPETDEKQIEALALADPKVQQQLEGKRVLKVIVAQKRLVNIVA | -0.0336
HMQKPIKPVKMHTVGPKENLSSIGRMYEVNGRVLANYNNIDYDKGLTIGQVLKIPPKGTTLEQVT | 0.431
HMENRILLSEDSLKHLAQDIPIDIIEKLSVLKDQIYHRYDDFNSIVQGLLGGENYLKYKDNILSFVEQ | 0.0624
HMQRDERYVYHTVLAGETIYSLSRKFNVTMDELLESNPALRSGVLTTGSEIRVLKAQMAQNFD | -0.376
HMIGVIVDEVDPDSSLKSGDIITEVNREVILNIDDFVGLVEQIQKTGRSSLLLKILRDKKSLWVTIQFV | 0.0885
HMGTWKKIGTMTATVNDLYVRETPNGYIMGFINKGTVVEVDGKTTGKWTHAKVEGIGVGWIWTGYLDK | -3.47
HMGIAFDYDAGRFDQVPPNLVEKWQQAYPAVDVLSELRRMEAWASANPVNRKSNWQRFIVNWLTRAQDRAG | -0.215
HMKSQVVAYSDFVKAVNQKQINEVQIQGDKIRAINKAGEEITVTWLQNDQKLMDDLLDNNVKTIFLE | 0.29
HMQEPIAVPDFINKSAVDVLVNPVFTQNFKLVSEDVYDDKVPEGYIVGQSVKSDTLVQPGTEIVIYV | 0.175
HMGTESFGARIRKIREARDWTPAALAEATGQTPEFVARVERDEVAPPVAFLLRLAAALGVDPSTF | -0.123
